# Assay results: US20150071950A1 (SAMSUNG ELECTRONICS, published 2015)
# B1: anti-c-Met antibody L3-1Y/IgG2 (antibody, V domains shown)
# VH: EVQLVESGGGLVQPGGSLRLSCAASGFTFTDYYMSWVRQAPGKGLEWLGFIRNKANGYTTEYSASVKGRFTISRDNSKNTLYLQMNSLRAEDTAVYYCARDNWFAYWGQGTLVTVSS
# VL: DIQMTQSPSSLSASVGDRVTITCKSSQSLLASGNQNNYLAWYQQKPGKAPKMLIIWASTRVSGVPSRFSGSGSGTDFTLTISSLQPEDFATYYCQQSYSRPYTFGQGTKVEIKR
# notes: also called huAbF46-H4-A1 (IgG2 Fc)
# B2: antibody-drug conjugate ADC1 (L3-1Y/IgG2 conjugated with docetaxel by amine coupling, feed molar ratio 5; DAR 3.7) (antibody, V domains shown)
# VH: B1 VH
# VL: B1 VL
# modifications: docetaxel-succinate (NHS-DTX) coupled to primary amines of lysine residues; sites not stated; DAR 3.7 for the whole antibody
# notes: also called ADC (DAR 3.7)
# B3: AbF46, mouse monoclonal antibody to c-Met (hybridoma KCLRF-BP-00220) (antibody, V domains shown)
# VH: EVKLVESGGGLVQPGGSLRLSCATSGFTFTDYYMSWVRQPPGKALEWLGFIRNKANGYTTEYSASVKGRFTISRDNSQSILYLQMDTLRAEDSATYYCARDNWFAYWGQGTLVTVSA
# VL: DILMTQSPSSLTVSAGEKVTMSCKSSQSLLASGNQNNYLAWHQQKPGRSPKMLIIWASTRVSGVPDRFIGSGSGTDFTLTINSVQAEDLAVYYCQQSYSAPLTFGAGTKLELK
# notes: Tested as hybridoma culture supernatant in the selection ELISA; also called mouse antibody AbF46
# Tests used:
# [1] = target: T1, human c-Met/Fc fusion protein (R&D Systems) (human, UniProt P08581 25-932); assay: SPR, Biacore T100; antibody captured by human Fab capture on CM5 chip, c-Met-Fc as analyte
# T1 construct: Bought protein; also called c-Met-Fc (#358-MT/CF, R&D Systems); human c-Met/Fc protein; not shown: Fc part of the bought fusion protein
# Description: (§1) An examination was made to see whether the antibody-drug conjugates maintain affinity for the antigen.
# (§2) Briefly, a human Fab capture (GE Healthcare) was immobilized on CM5 chip (#BR-1005-30, GE) according to the manufacturer's instruction. […] The chip was regenerated with 10 mM Glycine-HCl (pH 1.5). To quantify the affinity, the data obtained above was fitted using BIAevaluation software (GE Healthcare, Biacore T100 evaluation software).
# [2] = target: T1, human c-Met/Fc fusion protein (R&D …); assay: SPR, Biacore T100; ADC captured by human Fab capture on CM5 chip, c-Met-Fc as analyte
# Description: as §1, §2
# [3] = target: T1, human c-Met/Fc fusion protein (R&D …); assay: ELISA, hybridoma culture on plate-coated human c-Met/Fc fusion protein
# Description: The hybridoma cell culture obtained in Reference Example 1.1.2 was added in an amount of 50 μL to each well of the plates and incubated for 1 hour. The cells remaining unreacted were washed out with a sufficient amount of Tris-buffered saline and Tween 20 (TBST). Goat anti-mouse IgG-horseradish peroxidase (HRP) was added to the plates and incubated for 1 hour at room temperature. The plates were washed with a sufficient amount of TBST, followed by reacting the peroxidase with a substrate (OPD). Absorbance at 450 nm was measured on an ELISA reader.
# T1 sequence (P08581 25-932 limits assumed): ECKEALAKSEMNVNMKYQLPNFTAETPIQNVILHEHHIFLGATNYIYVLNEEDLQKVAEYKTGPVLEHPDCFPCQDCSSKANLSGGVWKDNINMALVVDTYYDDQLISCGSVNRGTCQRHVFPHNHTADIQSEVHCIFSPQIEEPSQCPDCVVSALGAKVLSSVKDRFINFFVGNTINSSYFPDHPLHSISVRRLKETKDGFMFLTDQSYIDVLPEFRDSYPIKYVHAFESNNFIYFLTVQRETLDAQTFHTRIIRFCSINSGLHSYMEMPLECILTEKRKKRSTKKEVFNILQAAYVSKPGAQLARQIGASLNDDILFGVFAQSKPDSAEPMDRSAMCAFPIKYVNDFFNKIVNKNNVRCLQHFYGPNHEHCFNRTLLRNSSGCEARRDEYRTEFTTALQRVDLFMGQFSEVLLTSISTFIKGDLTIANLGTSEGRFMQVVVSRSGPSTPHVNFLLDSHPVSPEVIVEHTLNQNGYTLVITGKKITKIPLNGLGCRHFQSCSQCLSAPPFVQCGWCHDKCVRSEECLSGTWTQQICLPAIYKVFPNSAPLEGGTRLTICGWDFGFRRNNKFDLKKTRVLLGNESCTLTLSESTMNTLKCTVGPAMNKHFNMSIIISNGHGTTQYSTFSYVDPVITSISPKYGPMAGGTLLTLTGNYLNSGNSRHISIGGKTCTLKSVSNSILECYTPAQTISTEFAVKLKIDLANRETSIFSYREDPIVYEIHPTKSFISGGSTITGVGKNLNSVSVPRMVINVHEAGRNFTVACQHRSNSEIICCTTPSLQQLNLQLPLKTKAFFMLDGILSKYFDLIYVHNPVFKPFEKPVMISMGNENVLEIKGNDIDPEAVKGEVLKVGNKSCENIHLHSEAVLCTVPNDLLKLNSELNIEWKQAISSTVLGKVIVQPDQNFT
binder,measurement,setting,value
B1,Kd,[1],58 pM
same,koff,[1],3.42e-05 s⁻¹
same,kon,[1],589000 M⁻¹ s⁻¹
B2,Kd,[2],99.8 pM
same,koff,[2],3.63e-05 s⁻¹
same,kon,[2],364000 M⁻¹ s⁻¹
B3,binding result,[3],binds
